These results are taken from publication PMC2114938.

The target in this assay is actin filaments (UniProt P68139). The assay is described as follows: immunogold electron microscopy.

Turning to “Cap Z(36/32) (from UniProt P13127 1-286; P14315 1-277) (complex)”, the percent of filaments with gold label at the barbed end (immune) came out at 17.4%.
